# Results as given in publication PMC10872757.
# B1: IreB (unphosphorylated), substrate of the PASTA kinase IreK of Enterococcus faecalis (natural protein)
# chain: MGFTDETVRFDFDDNRKKAISETLETVYRALEEKGYNPINQIVGYLLSGDPAYIPRYQDARNLIRRHERDEIMEELTKYYLANHGIDIK
# Biological target: MurAA-His6 (wild-type), UDP-N-acetylglucosamine 1-carboxyvinyl transferase of Enterococcus faecalis (Enterococcus faecalis)
# Assay: thermal shift assay
# Sequence of MurAA-His6 (wild-type), UDP-N-acetylglucosamine 1-carboxyvinyl transferase of Enterococcus faecalis (Enterococcus faecalis) (Q831A8 whole entry): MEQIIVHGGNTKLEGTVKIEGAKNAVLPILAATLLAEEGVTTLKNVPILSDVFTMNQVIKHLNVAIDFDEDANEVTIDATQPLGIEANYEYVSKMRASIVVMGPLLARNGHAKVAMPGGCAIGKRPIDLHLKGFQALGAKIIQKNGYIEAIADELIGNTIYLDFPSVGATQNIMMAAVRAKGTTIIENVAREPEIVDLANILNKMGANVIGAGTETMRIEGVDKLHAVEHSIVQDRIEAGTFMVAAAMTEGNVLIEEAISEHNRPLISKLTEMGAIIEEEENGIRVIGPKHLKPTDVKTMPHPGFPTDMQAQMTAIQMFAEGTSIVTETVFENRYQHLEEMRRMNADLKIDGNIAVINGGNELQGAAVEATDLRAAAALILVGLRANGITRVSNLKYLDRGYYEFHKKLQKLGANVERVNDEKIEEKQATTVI
binder,measurement,value
B1,additional shift of the MurAA Tm with IreB,16.5 °C
